This is an account of results in patent US20260042836A1.

Changes are numbered by the printed parent chain. Names may count otherwise.

The target of experiment [1] is Butyrophilin Subfamily 2 Member A1 (BTN2A1) (human) (UniProt Q7KYR7). The experiment can be described thus: cell-based or functional assay.
In the next experiment the target is BTN3A1/A2/A3. Nature of the experiment: cell-based or functional assay.
The target in experiment [2] is BTN2A1; BTN3A1; BTN3A2/A3 peptide on (human). Nature of the experiment: luciferase killing assay, 20 h; T cells + luciferase target cells (5:1) + purified GAB + 30 µM pamidronate; fusion: anti-CD3 scFv (GAB).
The target is the same in experiment [3]. Nature of the experiment: luciferase killing assay, 20 h; T cells + three luciferase tumour cell lines (10:1) + purified GAB + 30 µM pamidronate; fusion: anti-CD3 scFv (GAB).

Chain of UniProt Q7KYR7 (Q7KYR7 29-527): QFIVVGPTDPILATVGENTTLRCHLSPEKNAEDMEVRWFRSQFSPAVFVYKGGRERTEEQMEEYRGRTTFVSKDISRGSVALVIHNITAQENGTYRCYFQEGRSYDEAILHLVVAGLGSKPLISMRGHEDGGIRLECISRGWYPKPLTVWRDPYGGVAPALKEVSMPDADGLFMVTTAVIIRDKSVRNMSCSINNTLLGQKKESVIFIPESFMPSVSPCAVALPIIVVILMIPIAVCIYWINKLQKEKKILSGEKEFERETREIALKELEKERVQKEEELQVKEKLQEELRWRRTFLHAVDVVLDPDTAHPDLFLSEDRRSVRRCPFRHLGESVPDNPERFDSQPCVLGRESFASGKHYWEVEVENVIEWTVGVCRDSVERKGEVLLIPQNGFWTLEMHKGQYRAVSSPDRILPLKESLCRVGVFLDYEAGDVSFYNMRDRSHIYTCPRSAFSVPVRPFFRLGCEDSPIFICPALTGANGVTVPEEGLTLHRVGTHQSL

B1: Vγ9Vδ2TCR MNP2γE22W (TCR, part only; not given: rest of gamma chain, delta chain, part only)
TCR gamma, part: AGHLEQPQISSTKTLSKTARLWCVVSGITISATSVYWYRERPGEVIQFLVSISYDGTVRKESGIPSGKFEVDRIPETSTSTLTIHNVEKQDIATYYCALWE
Take B1: in experiment [1], the killing of luciferase transduced RPMI8226 cells by TCR-transduced αβT cells (MNP2 wt killed around 60%) was above 90%.

B2: GAB-AJ8sγT83I (TCR, part only; not given: CDR3 delta, constant parts, anti-CD3 scFv, part only)
TCR gamma, part: B1 TCR gamma, part with W22E, R73Y, T83I
TCR delta, part: AIELVPEHQTVPVSIGVPATLRCSMKGEAIGNYYINWYRKTQGNTMTFIYREKDIYGPGFKDNFQGDIDIAKNLAVLKILAPSERDEGSYYCACDT
The molecule B2 returned an IFNγ production relative to GAB-AJ8s (GAB expression media, MZ1851RC, 30 µM pamidronate) in experiment [1] of 8.8 fold.

B3: GAB-AJ8sδK53S (TCR, part only; not given: CDR3 delta, constant parts, anti-CD3 scFv, part only)
TCR gamma, part: B1 TCR gamma, part with W22E, R73Y
TCR delta, part: B2 TCR delta, part with K53S
Turning to B3, the IFNγ release after 20 hours of coculture, potency against GAB-AJ8s with BTN3A1/A2/A3 came to 10 fold.

B4: GAB-AJ8sδG31V (TCR, part only; not given: CDR3 delta, constant parts, anti-CD3 scFv, part only)
TCR gamma, part: B1 TCR gamma, part with W22E, R73Y
TCR delta, part: B2 TCR delta, part with G31V
In the case of B4, the IFNγ release after 20 hours of coculture, potency against GAB-AJ8s with BTN3A1/A2/A3 came out at 10 fold.

B5: GAB-AJ8sγE22WδK53S (TCR, part only; not given: CDR3 delta, constant parts, anti-CD3 scFv, part only)
TCR gamma, part: B1 TCR gamma, part with R73Y
TCR delta, part: B2 TCR delta, part with K53S
For B5, in the experiment with BTN3A1/A2/A3, the IFNγ release, potency against the single mutants (combined Vγ9 and Vδ2 mutations; RPMI8226 and SCC9) worked out at 10 fold; the T cell mediated killing of RPMI8226 and SCC9, potency against GAB-AJ8s is above 100 fold; the T cell mediated killing of RPMI8226 and SCC9, potency against the single Vγ9 or Vδ2 mutants was above 10 fold. In addition, in experiment [1], the IFNγ release, potency against the single mutants (combined Vγ9 and Vδ2 mutations; RPMI8226 and SCC9) stood at 10 fold; the T cell mediated killing of RPMI8226 and SCC9, potency against GAB-AJ8s was above 100 fold; the T cell mediated killing of RPMI8226 and SCC9, potency against the single Vγ9 or Vδ2 mutants was above 10 fold.

B6: GAB-AJ8s-Vγ9 mutation T83L (TCR, part only; not given: CDR3 delta, constant parts, anti-CD3 scFv, part only)
TCR gamma, part: B1 TCR gamma, part with W22E, R73Y, T83L
TCR delta, part: B2 TCR delta, part
B6 gave an IFNγ production relative to GAB-AJ8s (GAB expression media, MZ1851RC, 30 µM pamidronate) in experiment [1] of 2 fold.

B7: GAB-AJ8sγT81W (TCR, part only; not given: CDR3 delta, constant parts, anti-CD3 scFv, part only)
TCR gamma, part: B1 TCR gamma, part with W22E, R73Y, T81W
TCR delta, part: B2 TCR delta, part
With B7, in experiment [1], the IFNγ production relative to GAB-AJ8s (GAB expression media, MZ1851RC, 30 µM pamidronate) is 2 fold and the fold difference in EC50 of tumor cell killing against GAB-AJ8s stood at 2.8 fold. Also, the mean fold difference in EC50 of GAB against GAB-AJ8s in experiment [2] was found to be 2.8 fold.

B8: GAB-AJ8sγT81H (TCR, part only; not given: CDR3 delta, constant parts, anti-CD3 scFv, part only)
TCR gamma, part: B1 TCR gamma, part with R73Y
TCR delta, part: B2 TCR delta, part
In experiment [1], B8 showed an IFNγ production relative to GAB-AJ8s (GAB expression media, MZ1851RC, 30 µM pamidronate) of 4.2 fold and a fold difference in EC50 of tumor cell killing against GAB-AJ8s of 2.4 fold. In addition, the mean fold difference in EC50 of GAB against GAB-AJ8s in experiment [2] worked out at 2.4 fold.

B9: GAB-AJ8sγE22W (TCR, part only; not given: CDR3 delta, constant parts, anti-CD3 scFv, part only)
TCR gamma, part: B1 TCR gamma, part with R73Y
TCR delta, part: B2 TCR delta, part
In experiment [1], B9 had an IFNγ release after 20 hours of coculture, potency against GAB-AJ8s of 10 fold; an IFNγ release relative to GAB-AJ8s (GAB expression media, T cells with MZ1851RC or SCC9, 30 µM pamidronate) of 5.6 fold; a T cell mediated tumor cell killing (luciferase), activity against GAB-AJ8s above 10 fold; a fold difference in EC50 of tumor cell killing between GAB-AJ8s and GAB-AJ8γE22W of 15.5 fold. Further, the mean fold difference in EC50 of GAB against GAB-AJ8s in experiment [3] is 15.5 fold.

B10: GAB-AJ8sγE22WδG31V (TCR, part only; not given: CDR3 delta, constant parts, anti-CD3 scFv, part only)
TCR gamma, part: B1 TCR gamma, part with R73Y
TCR delta, part: B2 TCR delta, part with G31V
Turning to B10, in the experiment with BTN3A1/A2/A3, the IFNγ release, potency against the single mutants (combined Vγ9 and Vδ2 mutations; RPMI8226 and SCC9) is 10 fold; the T cell mediated killing of RPMI8226 and SCC9, potency against GAB-AJ8s was above 100 fold; the T cell mediated killing of RPMI8226 and SCC9, potency against the single Vγ9 or Vδ2 mutants is above 10 fold. Besides, in experiment [1], the IFNγ release, potency against the single mutants (combined Vγ9 and Vδ2 mutations; RPMI8226 and SCC9) is 10 fold; the T cell mediated killing of RPMI8226 and SCC9, potency against GAB-AJ8s is above 100 fold; the T cell mediated killing of RPMI8226 and SCC9, potency against the single Vγ9 or Vδ2 mutants is above 10 fold.

B11: GAB-AJ8s-Vγ9 mutation T81I (TCR, part only; not given: CDR3 delta, constant parts, anti-CD3 scFv, part only)
TCR gamma, part: B1 TCR gamma, part with W22E, R73Y, T81I
TCR delta, part: B2 TCR delta, part
B11: the IFNγ production relative to GAB-AJ8s (GAB expression media, MZ1851RC, 30 µM pamidronate) in experiment [1] is 2 fold.
